Assay results from the supplement of paper PMC10065799, “High-throughput profiling of sequence recognition by tyrosine kinases and SH2 domains using bacterial peptide display” (eLife, 2023).

What was measured:
AncSZ = assay: phosphorylation enrichment, bacterial display (enrichment ratio); higher = better substrate or ligand; peptides without Tyr show the background
EPHB1 = EPHB1 (UniProt P54762); assay: as above
EPHB2 = EPHB2 (UniProt P29323); assay: as above
FGFR1 = FGFR1 (UniProt P11362); assay: as above
FGFR3 = FGFR3 (UniProt P22607); assay: as above
Fer (mouse) = assay: as above
Fes = Fes (UniProt P07332); assay: as above
Fes, sequence (P07332 whole entry, looked up): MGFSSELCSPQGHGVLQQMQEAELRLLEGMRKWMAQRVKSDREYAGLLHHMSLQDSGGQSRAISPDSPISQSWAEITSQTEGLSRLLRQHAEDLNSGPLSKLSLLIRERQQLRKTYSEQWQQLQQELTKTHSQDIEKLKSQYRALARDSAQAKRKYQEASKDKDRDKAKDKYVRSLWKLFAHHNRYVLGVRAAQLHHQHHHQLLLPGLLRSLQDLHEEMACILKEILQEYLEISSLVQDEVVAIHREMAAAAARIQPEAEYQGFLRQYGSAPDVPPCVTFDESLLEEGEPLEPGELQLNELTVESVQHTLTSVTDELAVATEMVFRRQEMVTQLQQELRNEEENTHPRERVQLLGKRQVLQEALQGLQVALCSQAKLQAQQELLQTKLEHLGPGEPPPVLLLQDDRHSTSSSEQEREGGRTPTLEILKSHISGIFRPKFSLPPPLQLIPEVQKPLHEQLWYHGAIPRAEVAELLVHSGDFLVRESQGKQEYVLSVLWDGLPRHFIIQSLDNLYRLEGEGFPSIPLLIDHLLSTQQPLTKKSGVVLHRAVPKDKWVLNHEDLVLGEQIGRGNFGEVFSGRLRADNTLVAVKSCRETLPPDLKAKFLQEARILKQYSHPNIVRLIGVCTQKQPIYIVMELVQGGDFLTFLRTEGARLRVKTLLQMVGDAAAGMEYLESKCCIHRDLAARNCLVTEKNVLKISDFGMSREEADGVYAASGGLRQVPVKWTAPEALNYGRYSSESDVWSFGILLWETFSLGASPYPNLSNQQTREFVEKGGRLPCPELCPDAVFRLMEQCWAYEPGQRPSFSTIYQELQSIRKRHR

Fyn = Fyn (UniProt P06241); assay: as above
Fyn, sequence (P06241 whole entry, looked up): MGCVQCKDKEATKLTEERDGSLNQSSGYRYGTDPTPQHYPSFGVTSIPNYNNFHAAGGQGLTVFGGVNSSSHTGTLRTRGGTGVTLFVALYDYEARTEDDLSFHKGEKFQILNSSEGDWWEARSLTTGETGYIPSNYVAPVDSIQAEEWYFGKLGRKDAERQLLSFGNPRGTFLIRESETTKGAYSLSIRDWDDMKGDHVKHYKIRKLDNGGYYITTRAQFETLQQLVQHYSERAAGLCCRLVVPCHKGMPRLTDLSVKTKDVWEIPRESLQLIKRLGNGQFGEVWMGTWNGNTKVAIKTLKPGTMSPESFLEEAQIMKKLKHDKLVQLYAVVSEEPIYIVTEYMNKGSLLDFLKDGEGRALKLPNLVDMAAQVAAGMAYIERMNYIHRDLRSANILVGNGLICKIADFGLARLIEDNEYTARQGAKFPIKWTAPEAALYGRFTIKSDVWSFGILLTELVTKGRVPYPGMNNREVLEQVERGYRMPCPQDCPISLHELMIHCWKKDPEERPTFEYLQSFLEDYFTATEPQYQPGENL

Hck = Hck (UniProt P08631); assay: as above
Hck, sequence (P08631 whole entry, looked up): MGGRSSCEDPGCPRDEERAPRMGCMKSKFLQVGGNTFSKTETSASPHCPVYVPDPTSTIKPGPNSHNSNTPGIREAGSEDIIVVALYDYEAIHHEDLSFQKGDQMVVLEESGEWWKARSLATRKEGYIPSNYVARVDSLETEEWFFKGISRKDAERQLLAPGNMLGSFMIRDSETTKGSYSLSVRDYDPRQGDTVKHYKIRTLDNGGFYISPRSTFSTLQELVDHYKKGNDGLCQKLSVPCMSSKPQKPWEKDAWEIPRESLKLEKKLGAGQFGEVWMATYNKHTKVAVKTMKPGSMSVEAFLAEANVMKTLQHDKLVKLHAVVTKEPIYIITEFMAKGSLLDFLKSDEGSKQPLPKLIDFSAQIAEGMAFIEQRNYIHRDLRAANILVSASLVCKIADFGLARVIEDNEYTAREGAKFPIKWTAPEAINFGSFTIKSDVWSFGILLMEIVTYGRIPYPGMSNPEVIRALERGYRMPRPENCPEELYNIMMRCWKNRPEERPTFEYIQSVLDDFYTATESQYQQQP

Jak2 = Jak2 (UniProt O60674); assay: as above
MERTK = MERTK (UniProt Q12866); assay: as above
MERTK, sequence (Q12866 whole entry, looked up): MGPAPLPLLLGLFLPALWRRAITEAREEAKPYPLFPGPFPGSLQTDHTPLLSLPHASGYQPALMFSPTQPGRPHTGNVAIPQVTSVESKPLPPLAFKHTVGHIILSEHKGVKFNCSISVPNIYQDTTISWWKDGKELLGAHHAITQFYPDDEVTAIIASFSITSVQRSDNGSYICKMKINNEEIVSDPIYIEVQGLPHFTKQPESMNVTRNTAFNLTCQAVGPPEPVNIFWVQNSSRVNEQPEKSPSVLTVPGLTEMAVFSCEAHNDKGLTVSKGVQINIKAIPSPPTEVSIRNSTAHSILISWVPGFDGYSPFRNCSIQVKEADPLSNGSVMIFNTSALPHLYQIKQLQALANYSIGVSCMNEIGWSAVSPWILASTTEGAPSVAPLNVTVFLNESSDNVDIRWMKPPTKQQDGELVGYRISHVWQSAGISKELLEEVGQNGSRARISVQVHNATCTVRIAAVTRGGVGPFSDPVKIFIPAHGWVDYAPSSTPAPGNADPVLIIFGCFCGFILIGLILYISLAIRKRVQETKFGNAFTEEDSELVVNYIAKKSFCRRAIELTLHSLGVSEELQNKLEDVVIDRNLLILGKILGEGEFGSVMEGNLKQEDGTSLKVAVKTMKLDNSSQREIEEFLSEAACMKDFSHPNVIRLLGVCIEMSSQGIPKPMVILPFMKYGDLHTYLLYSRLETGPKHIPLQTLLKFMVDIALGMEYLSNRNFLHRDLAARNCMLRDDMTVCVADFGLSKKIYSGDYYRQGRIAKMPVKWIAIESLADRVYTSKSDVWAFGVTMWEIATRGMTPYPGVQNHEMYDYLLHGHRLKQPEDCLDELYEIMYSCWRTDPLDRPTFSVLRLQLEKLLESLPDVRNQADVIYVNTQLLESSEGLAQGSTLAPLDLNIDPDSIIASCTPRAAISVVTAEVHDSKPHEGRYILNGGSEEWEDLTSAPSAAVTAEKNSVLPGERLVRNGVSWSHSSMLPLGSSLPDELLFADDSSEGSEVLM

c-Abl (mouse) = assay: as above
c-Src = assay: as above
Grb2 SH2 = Grb2 SH2 (UniProt P62993); assay: SH2 binding enrichment of the phosphorylated peptide, bacterial display (enrichment ratio); higher = better substrate or ligand; peptides without Tyr show the background
SHP2-C SH2 = assay: as above
c-Src SH2 = assay: as above
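Wherever SH2 binding enrichment of the phosphorylated peptide, bacterial display is given: peptide library displayed on the E. coli surface as eCPX fusions, selected cells deep-sequenced, score is each peptide's frequency after selection divided by its frequency in the input.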
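Wherever phosphorylation enrichment, bacterial display is given: 11-residue human phosphosite peptides and single-mutation variants displayed on the E. coli surface, counted by deep sequencing, each peptide's frequency after selection divided by its frequency in the unselected input library; frequency after pTyr selection over input frequency; kinase dosed for 20-30% of maximal phosphorylation in three min.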

EPHB2, sequence (P29323 whole entry, looked up): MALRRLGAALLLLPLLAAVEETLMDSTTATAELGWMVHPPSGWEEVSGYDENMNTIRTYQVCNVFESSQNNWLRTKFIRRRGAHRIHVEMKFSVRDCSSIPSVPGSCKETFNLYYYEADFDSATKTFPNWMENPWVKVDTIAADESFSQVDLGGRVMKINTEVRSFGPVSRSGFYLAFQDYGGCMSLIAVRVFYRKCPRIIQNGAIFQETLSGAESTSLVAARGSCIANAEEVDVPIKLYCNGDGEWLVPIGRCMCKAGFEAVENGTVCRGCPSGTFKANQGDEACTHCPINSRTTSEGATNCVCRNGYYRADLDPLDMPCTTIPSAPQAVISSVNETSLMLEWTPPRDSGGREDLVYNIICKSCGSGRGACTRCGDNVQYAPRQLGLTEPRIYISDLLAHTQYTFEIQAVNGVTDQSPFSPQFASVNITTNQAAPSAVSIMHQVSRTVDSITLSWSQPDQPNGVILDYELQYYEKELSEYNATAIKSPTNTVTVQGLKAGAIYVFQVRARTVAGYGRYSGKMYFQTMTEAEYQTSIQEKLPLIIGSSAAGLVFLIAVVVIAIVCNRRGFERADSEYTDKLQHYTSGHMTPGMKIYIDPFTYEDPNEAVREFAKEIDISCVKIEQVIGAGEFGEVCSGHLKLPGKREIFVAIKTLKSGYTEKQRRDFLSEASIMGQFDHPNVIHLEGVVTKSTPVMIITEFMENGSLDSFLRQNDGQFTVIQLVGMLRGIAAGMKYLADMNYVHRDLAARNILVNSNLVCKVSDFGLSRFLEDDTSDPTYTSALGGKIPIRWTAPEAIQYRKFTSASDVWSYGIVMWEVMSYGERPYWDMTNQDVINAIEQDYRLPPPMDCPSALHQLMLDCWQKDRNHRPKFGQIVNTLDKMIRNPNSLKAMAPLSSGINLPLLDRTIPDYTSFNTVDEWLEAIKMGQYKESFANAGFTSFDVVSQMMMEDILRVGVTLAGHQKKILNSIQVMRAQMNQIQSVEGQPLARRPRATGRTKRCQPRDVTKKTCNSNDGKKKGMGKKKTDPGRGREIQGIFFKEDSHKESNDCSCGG
EPHB1, sequence (P54762 whole entry, looked up): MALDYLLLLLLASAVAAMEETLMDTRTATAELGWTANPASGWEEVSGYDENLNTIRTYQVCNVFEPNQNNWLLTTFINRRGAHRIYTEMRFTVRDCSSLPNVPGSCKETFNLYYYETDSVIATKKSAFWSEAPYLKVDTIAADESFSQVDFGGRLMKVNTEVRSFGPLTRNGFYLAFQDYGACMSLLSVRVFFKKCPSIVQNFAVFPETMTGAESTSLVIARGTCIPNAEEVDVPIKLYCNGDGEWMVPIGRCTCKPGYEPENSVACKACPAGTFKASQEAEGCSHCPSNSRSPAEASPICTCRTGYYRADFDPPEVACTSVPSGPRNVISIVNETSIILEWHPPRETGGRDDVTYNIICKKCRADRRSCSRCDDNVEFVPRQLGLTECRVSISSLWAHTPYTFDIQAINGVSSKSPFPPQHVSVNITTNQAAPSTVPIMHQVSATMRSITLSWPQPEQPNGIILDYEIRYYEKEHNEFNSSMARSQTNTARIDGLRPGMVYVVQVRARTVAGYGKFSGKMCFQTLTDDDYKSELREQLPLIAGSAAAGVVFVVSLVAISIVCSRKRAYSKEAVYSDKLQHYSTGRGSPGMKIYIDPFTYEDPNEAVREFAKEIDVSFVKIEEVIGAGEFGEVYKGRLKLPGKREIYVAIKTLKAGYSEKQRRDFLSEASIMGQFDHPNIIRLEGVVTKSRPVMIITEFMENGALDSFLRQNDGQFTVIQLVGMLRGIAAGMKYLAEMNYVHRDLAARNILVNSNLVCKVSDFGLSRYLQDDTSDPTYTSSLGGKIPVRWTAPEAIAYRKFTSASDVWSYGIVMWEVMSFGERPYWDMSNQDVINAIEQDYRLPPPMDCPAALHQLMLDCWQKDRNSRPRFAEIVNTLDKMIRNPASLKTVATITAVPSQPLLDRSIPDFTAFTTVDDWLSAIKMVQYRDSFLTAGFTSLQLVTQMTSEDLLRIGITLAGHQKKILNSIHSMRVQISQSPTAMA

Row | Sequence | SH2 binding enrichment (Grb2 SH2) | SH2 binding enrichment (SHP2-C SH2) | SH2 binding enrichment (c-Src SH2) | phosphorylation enrichment (AncSZ) | phosphorylation enrichment (EPHB1) | phosphorylation enrichment (EPHB2) | phosphorylation enrichment (FGFR1) | phosphorylation enrichment (FGFR3) | phosphorylation enrichment (Fer (mouse)) | phosphorylation enrichment (Fes) | phosphorylation enrichment (Fyn) | phosphorylation enrichment (Hck) | phosphorylation enrichment (Jak2) | phosphorylation enrichment (MERTK) | phosphorylation enrichment (c-Abl (mouse)) | phosphorylation enrichment (c-Src)
1 | SGLDSYVRSLP [TRAPPC1_Y133_R129G] | 0.799 | 0.74 | 0.492 | 0.618 | 0.379 | 0.581 | 0.453 | 0.48 | 0.445 | 0.651 | 0.424 | 0.438 | 0.443 | 0.402 | 0.426 | 0.359
2 | SGVNKYSTAFG [GJB3_Y16] | 0.84 | 0.658 | 0.428 | 0.613 | 0.375 | 0.384 | 0.4 | 0.454 | 0.394 | 0.614 | 0.437 | 0.409 | 0.604 | 0.425 | 0.461 | 0.434
3 | SHTPSYCDESL [RITA1_Y109] | 0.895 | 0.706 | 0.678 | 0.806 | 0.462 | 0.459 | 0.502 | 0.516 | 0.505 | 0.831 | 0.405 | 0.405 | 0.62 | 0.419 | 0.566 | 0.403
4 | SIGLGYHKDLQ [NF1_Y1169] | 0.776 | 0.639 | 0.423 | 0.528 | 0.34 | 0.629 | 0.414 | 0.486 | 0.368 | 0.536 | 0.427 | 0.424 | 0.548 | 0.381 | 0.487 | 0.458
5 | SIKDKYLTALY [KCNH2_Y611_V612L] | 0.968 | 0.634 | 0.565 | 0.727 | 0.456 | 0.452 | 0.417 | 0.546 | 0.44 | 0.707 | 0.56 | 0.651 | 0.624 | 0.439 | 0.487 | 0.623
6 | SIKNKYVTALY [KCNH2_Y611_D609N] | 0.909 | 0.932 | 0.381 | 0.559 | 0.349 | 0.498 | 0.409 | 0.598 | 0.518 | 0.592 | 0.359 | 0.47 | 0.605 | 0.528 | 0.454 | 0.461
7 | SIRFNYLLDVL [FGFR4_Y237_YF] | 1.37 | 1.3 | 1.1 | 0.94 | 0.539 | 0.518 | 0.481 | 0.747 | 0.502 | 1.14 | 0.432 | 0.485 | 1 | 0.387 | 0.706 | 0.413
8 | SLFPGYNFRFA [P2RX7_Y291_YF] | 1.24 | 0.962 | 0.819 | 0.844 | 0.614 | 0.46 | 0.433 | 0.736 | 0.511 | 0.953 | 0.472 | 0.476 | 0.673 | 0.475 | 0.508 | 0.502
9 | SLLTDYSPQLQ [OTC_Y345] | 0.708 | 0.918 | 0.517 | 0.776 | 0.459 | 0.508 | 0.447 | 0.546 | 0.453 | 0.796 | 0.45 | 0.48 | 0.788 | 0.381 | 0.483 | 0.372
10 | SLYPGYNFRYA [P2RX7_Y291] | 0.91 | 0.672 | 0.666 | 0.63 | 0.423 | 0.604 | 0.44 | 0.57 | 0.498 | 0.685 | 0.413 | 0.529 | 0.495 | 0.399 | 0.477 | 0.378

Further lines, with some results ahead:

Row | SH2 binding enrichment (Grb2 SH2) | SH2 binding enrichment (SHP2-C SH2) | SH2 binding enrichment (c-Src SH2) | Sequence | phosphorylation enrichment (AncSZ) | phosphorylation enrichment (EPHB1) | phosphorylation enrichment (EPHB2) | phosphorylation enrichment (FGFR1) | phosphorylation enrichment (FGFR3) | phosphorylation enrichment (Fer (mouse)) | phosphorylation enrichment (Fes) | phosphorylation enrichment (Fyn) | phosphorylation enrichment (Hck) | phosphorylation enrichment (Jak2) | phosphorylation enrichment (MERTK) | phosphorylation enrichment (c-Abl (mouse)) | phosphorylation enrichment (c-Src)
11 | 0.775 | 0.724 | 0.489 | SGGLDYGMVGG [TNRC6B_Y1382_M1380L] | 0.765 | 0.527 | 0.973 | 0.446 | 0.537 | 0.476 | 0.722 | 2.21 | 0.76 | 0.636 | 0.43 | 0.523 | 1.88
12 | 0.994 | 11.8 | 2.06 | SGIYQYSIAKF [FOXL2_Y83_I84S] | 1.83 | 4.84 | 2.75 | 1.71 | 1.46 | 13.4 | 1.18 | 4.54 | 5.59 | 1.04 | 9.44 | 7.69 | 4.12
13 | 0.746 | 0.842 | 0.471 | SHLEDYPFDAE [AKR1B10_Y310_N313D] | 0.986 | 0.516 | 0.554 | 0.467 | 0.714 | 0.469 | 1.14 | 0.485 | 0.448 | 1.3 | 0.369 | 0.672 | 0.462
14 | 0.893 | 14.2 | 4.66 | SKAYAYVHFDS [PABPC5_Y149_G146A] | 0.967 | 0.549 | 0.461 | 0.445 | 0.803 | 0.477 | 1.19 | 0.394 | 0.398 | 1.05 | 0.389 | 0.789 | 0.365
15 | 0.975 | 0.765 | 0.483 | SLLTDCSPQLQ [OTC_Y345_Y345C] | 0.999 | 0.567 | 0.548 | 0.518 | 0.707 | 0.522 | 1.06 | 0.454 | 0.554 | 0.905 | 0.441 | 0.768 | 0.475
